Experimental data reported in the supplement of paper PMC6757056.
± gives the standard deviation of the averaged measurements.

B1: library; a variant is named by its letters at N, in order (parent)
chain: GCUGUCACCGGUGCUUGGUACGUUAUAUUCAGCCGGUCUGAUGAGUCUNNNNNNAGACGAAACAGC

Columns and labels:
[1] = variants of: B1; experiment: FACS-Seq fitted mean relative fluorescence mCherry/BFP without ligand (log10 relative fluorescence); HEK293T overexpressing SLC46A1; higher = higher reporter protein expression; settings: without (6R,S)-folinic acid; ligand present: no
Outline: (§1)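 Lentivirally transduced HEK293T libraries carried an mCherry reporter with the ribozyme switch and an EF1α-BFP marker. Transduced cells were enriched, then incubated with or without ligand for 48 h and sorted into 6 bins by mCherry/BFP. Genomic DNA from each bin was PCR-amplified, barcoded and sequenced on MiSeq. Fluorescence was the fitted normal mean of log10(mCherry/BFP) bin counts, scaled to five spiked-in control ribozymes.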

[2] = variants of: B1; experiment: normalized RNA/DNA level without ligand (relative to sTRSVctl = 100) (log10 (% of sTRSVctl)); HEK293T overexpressing SLC46A1; higher = less ribozyme self-cleavage, higher mRNA level; settings: without (6R,S)-folinic acid; ligand present: no
Description: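 Hammerhead (sTRSV) ribozyme switch libraries with a ligand aptamer grafted on stem I and a randomized N4-6 loop II, cloned into the 3' UTR of mCherry and transiently transfected into HEK293T cells; RNA-Seq 72 h post transfection with ligand added 1 h before transfection; RNA read count / plasmid DNA read count normalized to the non-cleaving sTRSVctl (x100), log10; sequences with >100 DNA reads. FACS-Seq: lentiviral library sorted into 6 bins after 48 h ligand, log-normal fit mean of mCherry/BFP scaled to controls. Printed sequences are partial switch sequences.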

[3] = variants of: B1; experiment: FACS-Seq fitted mean relative fluorescence mCherry/BFP with ligand (log10 relative fluorescence); HEK293T overexpressing SLC46A1; ligand concentration (+) FACS-Seq: 6 mM; higher = higher reporter protein expression; settings: with (6R,S)-folinic acid; ligand present: yes
Outline: as §1

[4] = variants of: B1; experiment: normalized RNA/DNA level with ligand (relative to sTRSVctl = 100) (log10 (% of sTRSVctl)); HEK293T overexpressing SLC46A1; ligand concentration (+) RNA-Seq: 6 mM; higher = less ribozyme self-cleavage, higher mRNA level; settings: with (6R,S)-folinic acid; ligand present: yes
Outline: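 For each 6-well well, 4 µg of library plasmid encoding mCherry-linked ribozyme switches, or eGFP-linked ones in some ligand experiments, was transfected into HEK293T. Any ligand was added 1 h before transfection, and RNA was extracted with EDTA 72 h after it, then reverse-transcribed, amplified, barcoded and sequenced. RNA level was obtained by dividing RNA reads by DNA reads, normalizing to a spiked-in non-cleaving sequence or to the top sequences, then scaling and log-transforming. The top set was 25 sequences, scaling was ×100 with log10, and ≥100 DNA reads were required.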

Variant | FACS-Seq fitted mean (log10) [1] | normalized RNA/DNA level without ligand (log10) [2] | FACS-Seq fitted mean (log10) [3] | normalized RNA/DNA level with ligand (log10) [4]
CGCCAG | 0.509 ± 0.022 | 1.998 ± 0.013 | 0.216 ± 0.15 | 1.998 ± 0.016
UGGGAG | -0.0508 ± 0.0099 | 1.6 ± 0.025 | 0.331 ± 0.024 | 1.93 ± 0.078
UGGGAU | 0.3975 ± 0.0017 | 1.86 ± 0.022 | 0.547 ± 0.094 | 2 ± 0.046
AGCGCA | 0.49 ± 0.034 | 2.01 ± 0.021 | 0.548 ± 0.31 | 2.04 ± 0.029
UGGCAG | 0.237 ± 0.02 | 1.76 ± 0.059 | 0.61 ± 0.17 | 1.955 ± 0.013
GGCCAA | 0.479 ± 0.052 | 2.045 ± 0.013 | 0.409 ± 0.049 | 2.024 ± 0.0077
GGCCAU | 0.522 ± 0.091 | 2.05 ± 0.023 | 0.337 ± 0.19 | 2.01 ± 0.063
AGGUUA | 0.33 ± 0.013 | 1.981 ± 0.0028 | 0.384 ± 0.056 | 1.98 ± 0.04
AGGUUU | 0.323 ± 0.15 | 2.003 ± 0.012 | 0.561 ± 0.075 | 2.0283 ± 0.00022
GGGCGG | 0.0567 ± 0.099 | 2.07 ± 0.027 | 0.485 ± 0.0056 | 2.06 ± 0.045
GGGAUG | 0.385 ± 0.017 | 1.974 ± 0.017 | 0.354 ± 0.025 | 2.04 ± 0.028
GGGUGA | 0.435 ± 0.078 | 2.067 ± 0.0049 | 0.36 ± 0.31 | 2.07 ± 0.036
GGGUGC | 0.427 ± 0.079 | 1.969 ± 0.01 | 0.461 ± 0.023 | 2.011 ± 0.007
GGCGAU | 0.444 ± 0.0094 | 2.07 ± 0.027 | 0.55 ± 0.15 | 2.037 ± 0.015
GGCGAC | 0.216 ± 0.01 | 1.998 ± 0.003 | 0.128 ± 0.013 | 1.989 ± 0.0031
GGGAAG | 0.485 ± 0.082 | 1.955 ± 0.015 | 0.402 ± 0.061 | 2.04 ± 0.027
GGUACA | -0.547 ± 0.083 | 2.066 ± 0.0024 | -0.647 ± 0.18 | 2.07 ± 0.036
GGGGAA | 0.571 ± 0.12 | 1.996 ± 0.0088 | 0.428 ± 0.4 | 2.06 ± 0.034
